The text below walks through data of paper PMC4971505 (2016).

Assay [1] has as its target M3 muscarinic acetylcholine receptor (Homo sapiens, UniProt P20309). The assay is described as follows: 3H-NMS radioligand pseudocompetition binding (allosteric model).
The target in assay [2] is T1, M1 muscarinic acetylcholine receptor (Homo sapiens, UniProt P11229).
T1 chain: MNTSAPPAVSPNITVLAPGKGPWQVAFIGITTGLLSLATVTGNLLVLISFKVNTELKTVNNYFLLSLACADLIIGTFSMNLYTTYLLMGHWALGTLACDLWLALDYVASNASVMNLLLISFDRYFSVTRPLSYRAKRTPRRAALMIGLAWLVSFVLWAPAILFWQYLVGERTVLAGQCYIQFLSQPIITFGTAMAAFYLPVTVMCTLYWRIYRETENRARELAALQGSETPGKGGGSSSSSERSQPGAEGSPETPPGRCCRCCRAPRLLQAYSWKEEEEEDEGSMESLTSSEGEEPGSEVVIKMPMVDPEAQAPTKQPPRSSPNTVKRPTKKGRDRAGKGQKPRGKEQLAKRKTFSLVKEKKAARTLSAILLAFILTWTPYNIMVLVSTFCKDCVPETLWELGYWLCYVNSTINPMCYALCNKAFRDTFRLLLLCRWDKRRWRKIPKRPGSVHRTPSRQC
Described as above.

Chain of M3 muscarinic acetylcholine receptor (P20309 whole entry): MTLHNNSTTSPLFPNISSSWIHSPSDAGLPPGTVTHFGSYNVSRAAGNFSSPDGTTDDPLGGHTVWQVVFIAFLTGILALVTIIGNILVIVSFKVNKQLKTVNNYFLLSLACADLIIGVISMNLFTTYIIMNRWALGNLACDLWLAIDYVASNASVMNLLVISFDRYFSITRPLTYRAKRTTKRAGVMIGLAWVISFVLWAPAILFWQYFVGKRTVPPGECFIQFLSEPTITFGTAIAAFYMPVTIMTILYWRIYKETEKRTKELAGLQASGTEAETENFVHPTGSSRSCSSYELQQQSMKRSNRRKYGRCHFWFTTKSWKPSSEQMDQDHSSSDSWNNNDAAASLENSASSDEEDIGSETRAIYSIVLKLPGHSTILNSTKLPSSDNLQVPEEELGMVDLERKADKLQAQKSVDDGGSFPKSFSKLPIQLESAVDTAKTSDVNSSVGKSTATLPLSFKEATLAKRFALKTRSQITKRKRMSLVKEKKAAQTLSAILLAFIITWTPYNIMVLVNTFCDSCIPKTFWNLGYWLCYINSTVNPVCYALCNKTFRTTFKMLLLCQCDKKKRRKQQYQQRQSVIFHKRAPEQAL

B1: SLURP-2 (protein)
chain: IWCHQCTGFGGCSHGSRCLRDSTHCVTTATRVLSNTEDLPLVTKMCHIGCPDIPSLGLGPYVSIACCQTSLCNHD
For the molecule B1, the Kd is 144 nM in assay [1] and 231 nM in assay [2].

In general, Kd refers to a measure of binding affinity in units of concentration. Read a high Kd as a looser complex.
